The results in this text go back to patent US6468985B1, “Retinoblastoma protein-interacting zinc finger proteins” (The Burnham Institute, priority 1994, dated 2002).

For assay [1], the target named is T1, RIZ GTPase domain (GST-G) (Rattus norvegicus, UniProt Q63755).
T1 construct: a fragment of RIZ from amino acid position 760-949 (RIZ 760-949), containing the putative GTPase domain; made in house; E. coli XL-1 blue is printed only for pKG7.1S)
T1 sequence (Q63755 760-949): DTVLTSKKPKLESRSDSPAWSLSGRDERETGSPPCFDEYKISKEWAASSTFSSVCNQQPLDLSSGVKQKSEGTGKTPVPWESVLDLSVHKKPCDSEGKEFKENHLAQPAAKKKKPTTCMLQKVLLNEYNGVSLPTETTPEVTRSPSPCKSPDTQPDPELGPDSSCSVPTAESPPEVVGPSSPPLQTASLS
Put plainly: competition of unlabeled nucleotides for GTP binding of RIZ GTPase domain. To be noted: 20 mM unlabeled nucleotide, 1 hr before α-32P-GTP. The method, then: The GTPase domain of RIZ, which was defined by sequence homology, was evaluated to determine if it was functionally active. For these studies, a fragment of RIZ from amino acid position 760-949 (RIZ 760-949), containing the putative GTPase domain was expressed as a fusion to GST from the plasmid pKG-G and tested for binding to radiolabeled nucleotides. pKG-G was produced by PCR amplification of the nucleotide sequence encoding RIZ (760-949) using primers 5′-TCTCCACAGC ACAGCCCT-3′ (SEQ ID NO: 15), and 5′-GGATAAGGAG GCTGTCTG-3′ (SEQ ID NO: 16) and PCMVRIZ as template. The fragment was cloned into pBSK+ and then into PGEX-KG, expressed and purified by glutathionine-agarose as described above. GST was also expressed from vector PGEX-KG and purified as described above.
To measure GTP-binding, 0.5 μg of GST-RIZ or control GST proteins were separated by SDS-PAGE and blotted onto nitrocellulose. Proteins were renatured in GTP-binding buffer (50 mM Tris-HCl, pH8, 100 mM KCl, 10% glycerol, 0.1% Triton X-100, and 2 mM […]). The nitrocellulose was incubated for 30 min in GTP-binding buffer and then for 2 hr in GTP-binding buffer containing 1 μM α-^32P-GTP (800 Ci/mmol). The nitrocellulose was washed 5 times in GTP-binding buffer, dried and autoradiographed. In some samples, 20 mM unlabeled nucleotides were incubated with the nitrocellulose for 1 hr prior to the addition of α-^32P-GTP.

In assay [2] the target is T2, Rb from HT1080 cell extract (Homo sapiens, UniProt P06400).
T2 construct: endogenous in cells; host or cells: HT1080 cells (lysate)
T2 sequence (P06400 1-928): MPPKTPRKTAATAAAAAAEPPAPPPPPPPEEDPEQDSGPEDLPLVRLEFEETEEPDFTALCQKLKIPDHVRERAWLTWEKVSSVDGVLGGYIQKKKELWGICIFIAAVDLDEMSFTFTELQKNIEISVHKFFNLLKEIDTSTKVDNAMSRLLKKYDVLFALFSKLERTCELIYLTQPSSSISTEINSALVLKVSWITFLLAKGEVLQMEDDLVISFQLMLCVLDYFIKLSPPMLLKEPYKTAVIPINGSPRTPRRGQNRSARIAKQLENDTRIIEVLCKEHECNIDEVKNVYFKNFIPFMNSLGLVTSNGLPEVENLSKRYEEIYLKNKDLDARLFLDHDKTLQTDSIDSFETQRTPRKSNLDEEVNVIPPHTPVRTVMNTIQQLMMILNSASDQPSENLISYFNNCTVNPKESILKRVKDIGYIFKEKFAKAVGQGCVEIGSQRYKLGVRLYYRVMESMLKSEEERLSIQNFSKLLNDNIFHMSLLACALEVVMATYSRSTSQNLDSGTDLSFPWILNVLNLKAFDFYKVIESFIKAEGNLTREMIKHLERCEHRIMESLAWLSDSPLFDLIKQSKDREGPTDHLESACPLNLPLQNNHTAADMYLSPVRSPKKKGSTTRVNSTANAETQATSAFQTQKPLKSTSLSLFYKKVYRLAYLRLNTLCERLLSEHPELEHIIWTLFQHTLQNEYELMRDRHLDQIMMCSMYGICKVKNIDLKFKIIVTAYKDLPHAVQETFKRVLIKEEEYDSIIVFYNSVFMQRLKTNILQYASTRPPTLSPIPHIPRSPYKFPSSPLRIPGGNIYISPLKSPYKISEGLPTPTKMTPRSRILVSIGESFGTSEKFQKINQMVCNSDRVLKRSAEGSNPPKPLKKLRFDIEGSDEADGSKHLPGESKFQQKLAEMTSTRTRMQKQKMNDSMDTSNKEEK
Put plainly: GST-RIZ (215-462) glutathione-agarose pull-down of Rb from cell extract, anti-Rb immunoblot. The class given is binding. Particulars: cell lysate from 293 stably transfected to express E1A as source. The method, then: Rat RIZ was tested for binding to Rb in HT1080 cells (ATCC #ICCL 121). The cells were grown in DMEM supplemented with […]. Cells were lysed in ELB buffer (50 mM HEPES, pH 7.5, 250 mM NaCl, 0.1% NP-40) supplemented with 5 mM EDTA, 50 mM NaF, 1 mM Na orthovanadate, 1 mM of DTT, aprotinin, leupeptin, and PMSF. The lysate was cleared of cell debris by centrifugation at 12,000 rpm for 10 min in a microfuge.
Binding between 4 μg GST-RIZ (215-462) and Rb from HT1080 cell extract was evaluated by first mixing the two, then binding GST-RIZ and any associated Rb to glutathione-agarose beads. The beads were washed in binding buffer and the bound complexes were eluted by boiling in SDS buffer and analyzed by immunoblotting with anti-Rb antiserum. Immunoblotting was performed by standard techniques (see, for example, Harlow and Lane, supra, 1988).
On the technique in general: A western blot detects proteins with antibodies after separation by electrophoresis.

Assay [3] has as its target T3, wild-type full length Rb (A9), 35S-labeled (UniProt P06400 2-928, limits assumed, 35S label).
T3 construct: mature; also called wt-Rb; wild-type Rb
T3 sequence (looked up): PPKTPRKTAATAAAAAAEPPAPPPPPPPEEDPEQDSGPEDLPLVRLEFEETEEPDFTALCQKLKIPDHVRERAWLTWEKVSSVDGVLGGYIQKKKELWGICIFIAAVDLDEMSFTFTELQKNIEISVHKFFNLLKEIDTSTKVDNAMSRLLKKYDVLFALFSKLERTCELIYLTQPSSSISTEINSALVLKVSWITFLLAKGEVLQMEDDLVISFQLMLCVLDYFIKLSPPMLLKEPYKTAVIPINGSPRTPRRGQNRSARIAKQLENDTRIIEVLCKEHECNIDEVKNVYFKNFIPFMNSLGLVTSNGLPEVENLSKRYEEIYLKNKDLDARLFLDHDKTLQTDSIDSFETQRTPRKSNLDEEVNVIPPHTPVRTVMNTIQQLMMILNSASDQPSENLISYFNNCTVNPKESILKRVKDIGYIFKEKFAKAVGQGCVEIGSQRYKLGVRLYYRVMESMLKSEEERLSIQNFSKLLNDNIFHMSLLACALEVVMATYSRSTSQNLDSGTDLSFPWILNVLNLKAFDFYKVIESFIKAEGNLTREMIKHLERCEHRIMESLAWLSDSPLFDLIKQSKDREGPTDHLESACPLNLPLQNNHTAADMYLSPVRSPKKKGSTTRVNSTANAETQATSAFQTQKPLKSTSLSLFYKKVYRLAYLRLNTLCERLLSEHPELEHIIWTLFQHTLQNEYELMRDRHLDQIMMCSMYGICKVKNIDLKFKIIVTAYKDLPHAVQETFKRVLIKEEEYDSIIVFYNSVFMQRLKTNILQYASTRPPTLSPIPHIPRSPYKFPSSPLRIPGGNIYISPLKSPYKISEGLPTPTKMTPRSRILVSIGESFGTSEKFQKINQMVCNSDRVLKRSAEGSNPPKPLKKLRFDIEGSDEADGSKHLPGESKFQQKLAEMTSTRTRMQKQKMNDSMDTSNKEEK
Nature of the assay: preformed complex tested with anti-ce1.

Assay [4] concerns the target T4, 56 kD fragment of Rb produced by bacterial expression from p56Rb plasmid (UniProt P06400 379-928).
T4 construct: range 379-928; Expressed in E. coli; also called 56 kD Rb
T4 sequence (looked up): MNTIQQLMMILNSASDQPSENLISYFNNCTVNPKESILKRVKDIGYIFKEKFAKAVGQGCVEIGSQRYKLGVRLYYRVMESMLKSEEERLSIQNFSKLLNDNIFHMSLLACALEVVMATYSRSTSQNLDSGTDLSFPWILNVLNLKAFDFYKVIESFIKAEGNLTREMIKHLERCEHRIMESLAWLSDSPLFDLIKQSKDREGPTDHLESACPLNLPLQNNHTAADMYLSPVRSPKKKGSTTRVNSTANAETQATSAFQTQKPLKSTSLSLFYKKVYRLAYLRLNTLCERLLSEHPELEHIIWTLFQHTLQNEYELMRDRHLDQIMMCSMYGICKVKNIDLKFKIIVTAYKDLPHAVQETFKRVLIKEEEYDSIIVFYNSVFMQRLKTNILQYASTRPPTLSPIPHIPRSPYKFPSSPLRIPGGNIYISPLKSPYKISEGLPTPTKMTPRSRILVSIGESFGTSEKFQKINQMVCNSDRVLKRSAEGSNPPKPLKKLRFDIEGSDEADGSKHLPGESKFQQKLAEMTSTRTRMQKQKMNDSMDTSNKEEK
Put plainly: peptide competition against labeled RIZ (1-575) for 56 kD Rb.

For assay [5], the target named is T3, wild-type full length Rb (A9), …. Put plainly: 35S-labeled full-length Rb preincubated with RIZ (215-462), immunoprecipitated with anti-ce1.
Assay [6] shares this target. Put plainly: immunoprecipitation with anti-RIZ antiserum, SDS-PAGE, autoradiography.

As for `Nc1ncnc2c1ncn2[C@@H]1O[C@H](COP(=O)(O)OP(=O)(O)OP(=O)(O)O)[C@@H](O)[C@H]1O` [ATP], the “effect of excess unlabeled nucleotide on binding of RIZ GTPase to radiolabeled GTP” value (shortened to “effect of excess unlabeled nucleotide”) in assay [1] is “did not effect binding”.

As for “E1A: adenoviral E1A protein; source was cell lysate from 293 stably transfected to express E1A [reference compound]”, in assay [2], the “inhibition of binding of GST-RIZ (215-462) to hypophosphorylated Rb” value is on record as “inhibited binding”.

With `O=c1ccn([C@@H]2O[C@H](COP(=O)(O)OP(=O)(O)OP(=O)(O)O)[C@@H](O)[C@H]2O)c(=O)[nH]1` [UTP], the “effect of excess unlabeled nucleotide” value in assay [1] was “did not effect binding”.

For the molecule `Nc1nc2c(ncn2[C@@H]2O[C@H](COP(=O)(O)OP(=O)(O)OP(=O)(O)O)[C@@H](O)[C@H]2O)c(=O)[nH]1` [GTP], in assay [1], the “effect of excess unlabeled nucleotide” value is given as “inhibited binding”.

As for `Nc1ccn([C@@H]2O[C@H](COP(=O)(O)OP(=O)(O)OP(=O)(O)O)[C@@H](O)[C@H]2O)c(=O)n1` [CTP], in assay [1], the “effect of excess unlabeled nucleotide” value is “did not effect binding”.

B1: 35S labeled fragment of RIZ from amino acid position 1-575 (other)
chain: MHQNTESVAATETLAEVPEHVLRGLPEEVRLFPSAVDKTRIGVWATKPILKGKKFGPFVGDKKKRSQVRNNVYMWEVYYPNLGWMCIDATDPEKGNWLRYVNWACSGEEQNLFPLEINRAIYYKTLKPIAPGEELLVWYNGEDNPEIAAAIEEERASARSKRSSPKSRRGKKKSHENKNKGIRTHPTQLKASELDSTFANMRGSAEGPKEEDERPLASAPEQPAPLPEVGNQDAVPQVAIPLPACEPQPEVDGKQEVTDCEVNDVEEEELEEEEELEEEEEEELGEDGVEEADMPNESSAKEPEIRCEEKPEDLLEEPQSMSNEAREDSPDVTPPPHTPRAREEANGDVLETFMFPCQHCERKFATKQGLERHMHIHISTINHAFKCKYCGKRFGTQINRRRHERRHETGLKRRPSMTLQSSEDPDDGKGENVTSKDESSPPQLGQDCLILNSEKTSQEVLNSSFVEENGEVKELHPCKYCKKVFGTHTNMRRHQRRVHERHLIPKGVRRKGGLLEEPQPPAEQAPPSQNVYVPSTEPEEEGETDDVYIMDISSNISENLNYYIDGKIQTNSSTS
modifications: 35S label
notes: In vitro transcribed/translated from Spe I linearized template
With B1, the binding result in assay [3] was “binds”.

B2: RIZ-Pep, 11 amino acid peptide EIRCEEKPEDL representing a portion of the cr2 motif of RIZ (peptide)
peptide: EIRCEEKPEDL
notes: Synthetic peptide; also called cr2 peptide
As for B2, the binding result in assay [4] is on record as “binds”.

B3: RIZ (215-462) with the GST portion removed by thrombin cleavage (other)
chain: PLASAPEQPAPLPEVGNQDAVPQVAIPLPACEPQPEVDGKQEVTDCEVNDVEEEELEEEEELEEEEEEELGEDGVEEADMPNESSAKEPEIRCEEKPEDLLEEPQSMSNEAREDSPDVTPPPHTPRAREEANGDVLETFMFPCQHCERKFATKQGLERHMHIHISTINHAFKCKYCGKRFGTQINRRRHERRHETGLKRRPSMTLQSSEDPDDGKGENVTSKDESSPPQLGQDCLILNSEKTSQEVLN
Consider B3, for which the binding result in assay [5] is given as “binds”.

B4: glutathionine S-transferase (GST) fused to a fragment of RIZ from amino acid position 245-573 (other)
chain: CEPQPEVDGKQEVTDCEVNDVEEEELEEEEELEEEEEEELGEDGVEEADMPNESSAKEPEIRCEEKPEDLLEEPQSMSNEAREDSPDVTPPPHTPRAREEANGDVLETFMFPCQHCERKFATKQGLERHMHIHISTINHAFKCKYCGKRFGTQINRRRHERRHETGLKRRPSMTLQSSEDPDDGKGENVTSKDESSPPQLGQDCLILNSEKTSQEVLNSSFVEENGEVKELHPCKYCKKVFGTHTNMRRHQRRVHERHLIPKGVRRKGGLLEEPQPPAEQAPPSQNVYVPSTEPEEEGETDDVYIMDISSNISENLNYYIDGKIQTNSS
notes: Expressed from pKG7.1S in E. coli and purified on glutathione agarose; also called GSTZ13; not shown: glutathione S-transferase from vector pGEX-KG
As for B4, the binding result in assay [6] is recorded as “binds”.
